Biological target: T1, Fc-CTL (mannose receptor CTLD4-7 fused to human IgG1 Fc) (Mus musculus, UniProt Q61830 Q61830:655-1212)
T1 chain: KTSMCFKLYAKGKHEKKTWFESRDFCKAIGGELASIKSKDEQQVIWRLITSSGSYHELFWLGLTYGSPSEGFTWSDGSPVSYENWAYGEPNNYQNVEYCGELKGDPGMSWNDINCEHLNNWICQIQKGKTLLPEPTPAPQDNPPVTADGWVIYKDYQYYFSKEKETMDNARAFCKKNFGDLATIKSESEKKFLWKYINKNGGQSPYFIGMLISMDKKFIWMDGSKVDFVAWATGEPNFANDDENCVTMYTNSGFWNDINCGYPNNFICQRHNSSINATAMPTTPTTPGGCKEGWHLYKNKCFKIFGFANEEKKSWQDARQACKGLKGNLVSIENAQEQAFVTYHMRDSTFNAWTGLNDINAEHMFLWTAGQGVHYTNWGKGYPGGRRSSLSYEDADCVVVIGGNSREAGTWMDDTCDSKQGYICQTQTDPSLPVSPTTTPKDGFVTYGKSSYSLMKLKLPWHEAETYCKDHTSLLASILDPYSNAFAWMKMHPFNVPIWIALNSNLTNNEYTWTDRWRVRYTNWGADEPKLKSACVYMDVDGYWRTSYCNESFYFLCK
Assay: filter; 500 nM protein, PBS, 1 mM MgCl2, 1 mM CaCl2, BSA, 37 C; more than 2-fold higher than Fc-FN
Conditions: tags: human IgG1 Fc fusion; expressed in HEK293T from pIgplus-CTLD4-7; protein G purified; chain copies: 2; label: 5'-32P or 5'-ATTO 647N
Protocol: Representative DNA sequences of each motif family (FIG. 14A-B), namely CTL #5, CTL #9, CTL #6 and CTL #16, and unique sequences CTL #1, #2, #3, #14 and #18 (FIG. 39) were chosen for further analysis. Therefore, their binding ability to Fc-CTL, Fc-FN and the IgG1 Fc protein tag was monitored by radioactive filter retention assay (FIG. 15). DNA was end labeled with ³²P and mixed with the corresponding proteins at a concentration of 500 nM. The mixtures were incubated in selection buffer for 30 minutes at 37° C. and applied on a nitrocellulose membrane. Finally, the amount of bound DNA was detected by autoradiography.

B1: CTL #5 (ssDNA)
DNA: GCTGTGTGACTCCTGCAATGCAATCTAGCTGACAATGGGGGGGAAGAATGTGGGTGGGTGGCAGCTGTATCTTGTCTCC
B1: binds.
